Assay: soluble on expression in E. coli; label from the status in PepcDB or PDB records

| Sequence | soluble on expression in E. coli |
| --- | --- |
| MSLEEDIQKQIIAAKEEAHDETIWGKPANDIITGIGNNSGVRPQRAIWEMVQNARDVSLNGKADIVFERQHDCFIFQHNGISFTNNTLEALILQTSSKVRNDSVQVGQYGTGFLTTHKLGLKFTLSSSVQLLENEQLFHHFSNFLIDRSSTDKKQMRDSLKKQIKITEEWARNPTIVSGPSSLTTFRYIQEHEVEKMNTKEAFKASSALAPYVIALNPCVNSISFVDNVEDCKELYIRKSTEIINTCDFYNVVKVTIDKCETESCDFTVLMLQSKETVEESGEPKVIVILPIKELESKSVAFALSKDVPNLFIYLPLLGTEQWGLNFIFHSPLFTCDKDSRDSLRFVGNGQNNDVDAERNKGIIQLADVIVSHYITENLSNIQDCMYLAKVAFNLHNSDEALANYYKSLQSSWVKKYESFPFVITKNGNIITRQAKVFDKELFDACLENKDLLTAVYNVTVQIYGTDYLPLETNMLFWSETLLQWYEAESFNPHLIHLSDIVEYIDKNNITTIGEENLWCIDNYIANSKQIGLFTKYKLLPTKNGELRVREDLLNPIIHDESLLKILDSLLPNDVASFIHTRFVLFEDVKIEEYDHNKVKESMRLLVSELSDLQKGHEIYRTNILAGLDVDSNKYEQNKLSDNHINALMGFYAYIVNIGGEAFQYKMIHLLADFYNIDLKSGEAYIKEIYDWRTVAPLLIKDALFRFTLMDSQKQAENAEWVRQMVIALYNYSDYRTYLDKYTVYPNEMDKYCYSKKISKSVNITNDLIALYDKIVNNENGENMCKSIKCVLLKNTYNDYFVENATIEGSSLAEKIMLEIKREGAYPDISANKWKQQILDIIAKQDKDVYWASIFGEIDSSKGAILLSVIQEKEKKDSILSLIRVSDTKKLKALAEVAEDDNLARIIELGKAALRDEMNSEADFEYKKKLGEYVEELIRKEIDSKLKAGSHIMEVLSQQDGQDIIILLDGTAIYYIEVKSRWSQKDSVLMSALQFRTSVEEKTHYALCEVDMITYNRENVDKHEFPDVEETINRISAIMNIGVLNETLKDTLNQDSDQVHVGGDYKVVVPQTVWEEHGKHFNELVEEIKKIVEEKEGHHHHHH | soluble |
| MKLKVVYRKVSDYICYDLKEIVLPSSLPDPPHVVKRRKLTWHERFLVLKEASRLYAASWVRDIGPELRPNDYKKQGDAEPKKQAKEAENEPSVLEDLAVAARGGMETLRPALHRLYMTRASNYKDALTSFIKGYHEGLQQVMQNKAESEAPADEADKSKKTT | soluble |
| MSVMTLKKQTYRVIAVINQGQELLVRAHEPETADIEIIPVTTVVQVTEQNSTGDAAVALDTVTVVGERYVDDIVATLTTLRVGMAVLLQRESGNQYDDNAISVWTLQHAKLGYIARYQNQPYATLMDQGQRLYGIVTVLDQQKQHLELMLWRTTAVPSPIEALQIRQRLAKPRTNLGAVPTHSLQTPLGTIVMMCNGHPIKYQQVPLSPWLTPADELHVTKRYLLTPDWSQVPPDSLITCQVTAKADVVQRWQNEHISAAVLTNASSFYVVGISAQTKTGLNDNLVDDAAQPAVIYRVGQVSAHMQAGFMVSWAPFGDPRVQPALKLALHFSSQPLVPYHPVTPSRTNATFTQQELAALLVSALPNYQGGQRLEPSVTTITVEKLRQTLGDQTYHALANYQRHVQLVAGSTEGVNETLLQALIHAVTYHELTTMHYYQPTVGMVDQVIYPIQLFSTTTKDEDDAQLVGCLALYNYETFEIQQVPLTAIARIAIIADPEHPQTTPETESPDWLRIFLHGWNDDFLEHHHHHH | soluble |
| MGSDKIHHHHHHMTDRVLILGGRGRIGSSVAQDLANHTQAQITITGRSAEFGKAVSLSSGGQVQFLVLDLVEVDKLQNAIANSNLVIHCAGPFHYRDTNVLETCIAQGVNYVDVSDHRSYTSKALNFSEQAAAAGVTAIINTGIFPGISNSMVRQGVEQFDKPENIHLSYLVSGSGGAGITVMRTTFLGLQYPFETWIDGKWQVIKPYSERELVEFPPPYGRSGVYWFDMPETFTLPKAFPSVKTVITKFGSVPDFYNHLTWIAAHIFPKWLMQRRYMIEFLSHVSHSMTDVTNNFSGIGVAVRSEVTGQKDGKTAVYCSTVVHENTALASGCGTGSIAQLLLEGKLKKPGVFAVEEALPTDLFEEVMQSRGIKINHSWL | not soluble |
| MSLKNFVVKDIGIPKYIENMVGKGDFYLLNKRKLNSHKGQNGKVLIIGGSKEYHGAPVFSGLAASKFADIVTVASVSNVIGTVRNYPELMPYELNGEYIGQKNTDELLKLSKNYDCTVLGSGLSLNSSTKEFVNSYLNETNGKVVIDADAIKLIDYGNFEFKNNFIFTPHKKEFEYMKDYVKKYAKNQGFNSTVVLKGSIDIVFDPDNIKMNITGNQGMTAGGTGDILCGIIGAICACNDAFPSACCGTYINGYCGDLLEKEYGYYYNSTDIIKILPKALKELLYEGHHHHHH | soluble |
| MGSDKIHHHHHHMEMLEEHRCFEGWQQRWRHDSSTLNCPMTFSIFLPPPRDHTPPPVLYWLSGLTCNDENFTTKAGAQRVAAELGIVLVMPDTSPRGEKVANDDGYDLGQGAGFYLNATQPPWATHYRMYDYLRDELPALVQSQFNVSDRCAISGHSMGGHGALIMALKNPGKYTSVSAFAPIVNPCSVPWGIKAFSSYLGEDKNAWLEWDSCALMYASNAQDAIPTLIDQGDNDQFLADQLQPAVLAEAARQKAWPMTLRIQPGYDHSYYFIASFIEDHLRFHAQYLLK | not soluble |
| MSLSLMLTVETRQAVNPDYAKTLDTEGLRRHFLANDMFRSGEIRLIYTHYDRFVMGGAVPNGAPLTLDKVEETKTPSFLDRREMGIVNIGETGTVSAGDETYTLNRGDVLYLGAGSRAVTFDGAGRFYITSCPAHRSLPAKLVSLADSKEVKLGATETSNKRTINQFIHPLVMESCQLVLGYTMLEDGSVWNTIPSHIHDRRMEAYLYFGMDEKSRVLHLMGEPQETRHLFISNEEGAISPPWSIHSGAGIGSYTFIWAMAGDNVDYTDMDFIQPGDLKEGHHHHHH | soluble |
| MGHHHHHHGGHMSLKVLDFPSSKKAKELAVKYGYDEFIVRRWLHFFGDETEDIIRAFEEGIPKYIRINTLKIDEKGLLERLESRGFKLKKTEVPYCFEVVEEPYSIGATPEYLMGYYYVMDKSSCIPPLALEPKPGEVVVDLAASPGGKTTFLSMLMENKGAVIAVEPQKERLQPLIDNINRMGAMNVAVINVDGRRVPAMGIKADRVLLDAPCTGEGIIHKDPSRKTDRGKEDILFCSSLQRELVLAAFDCLKEGGVMVYSTCSLTPEENEFVVDFLLERRKGVVEEIEWGDEALALPGVKNEVSKARRFYPHRHQCSGFFVARIRKVGDSKAKPEEGGS | soluble |
| MTNELLIEIGTEELPAGVINPALDYLKDKINSLLNARQVKTYGTPRRLTLYFKDFENERKEKKEVIWGPPKNVAYDEKGNPTKALEGFLKKNNASLEEVKVLKKDKGEYVAIVRKVIEKSPIEKLQEEFEEILLSVPFPKRMRWTSSKRITFSRPVRWILALFNGQVLKLRFGELESSNKTYGHRFLSKGEVTINNPADYEKTLKEHYVIPDFNERKEIILRALEKSSQEVGGKPSYPEGLVEEVTNLVEYPFPVLGKFDEKYLELPPLVITTVAAHHQRFFCFEKDGKLLNYFLGISNNKPNEKIKEGYEKVLRARLEDALFFYREDLKKDLKSLIPELKKVLFHPKVGSMYEKEERMEKIAQKLCPLLKCEWEKVKEAVWLSKVDLLTEMVKELDELQGYMGYVYAKAQGYDEEVAKALWEQYFPRSLEDKVPETTTGTILSLSDKIDNLYSFFKAGEIPKGSSDPYGLRRSAFGIIKIVDVKNLDLNLEDFKEIYGEFKQYPKLVEFLKQRLISYLEDYPVDIVRAVLNVYSPMEPYKVINSVRVLYEASKSPEFPSVVEAAKRVIRIIPKDWKNYEVDEKLLSEEAERELYQKLTEFENKELKSPLELLPLKEYIDKFFDNVKVMAEDEKIRNNRISLLKRVENLFRTFGDFNEIVIKEG | soluble |
| MDPLTGVPIRQEVPRLMERTFQENQAETYVLFLINLDRFKLVNDSLGEGYGDQVLQTLVRRLLWQLPNQQWIARVSGDEFIACAAIKGELPKKETLATYISSIIQQPFQVDEVQFTMTASIGAAVYPMDGKSVEMIWNSLERALRHAKARGGNCVSWFCQELKDEWIHPFRLENDLRRAVENQELEHHHHHH | soluble |
| MSLELSLADRPAIVTGASRGIGREIAARFAEAGGDVVVCSRTYEDVEAVATELTQTHDGRVVPVECDVTDREAVRDLVDTTIQEFGDIRVLVNNAGGADESANLLHRCDEETFESMVDLNLKSQFLLSKEVLPAMVAAGGGSIIHMGSVNGLFGIGLSGYSEAKSGLLALSRNIAAHYGQHGVRSNVISAATIETANRRAEMENTEERTGETSARERWLDQYPLGRFGTPREVADTTLFLASEMSSFLTGENLVLDGGLTTSLPTSFINEVYDADEKPTPNEGHHHHHH | soluble |
| MSGNSGASPQDMVKKLVYLSCTLNQKCGQRTGPHREPEPFLGFSVRDRSGLEGAIASVFQSSFDVLLYPTIYDQAAALLFKLANGHYFQDGNKRTAFHLCLAYLRANNVHVSPPRSDDVITLLQTTVSRSGSQENGIAFVRQKLLDWTVD | not soluble |
| MLREKAMRSWKPIALGVTLALSSQFSWAAVIETTRLVGFGEAKYPENFTHFDYVNPQAPKYGKVTFGELGTYDNFNRFASRGVAAANTAELYDPLMFSPADEIDSYYPLIASKIRYSDDFTWLEIDLNPNARFHDGKPITAQDVEFSFEKFMAEGVPQYRVYYQDVKSVKAIAERTVRIEMKQPNREQLFSLAQSTRVLPKHYWQYKNLAEPLNEPPVGSGAYQIVDFKPGQSVTYKLNPDYWAKDLPVNVGRNNFAQIQYDYYRDDTVMLEAFKAGEFDLREENQAKFWATSYTGRNFDQGLIKKEEIAHQAPASTQGFIFNTQRPVFQDVRVREALNYALDFEWMNKNLFYDQYQRTRSYFQNTEYEAQGLPNAAELAVLTPYKEQLPARVFTETYQPSVTDGSGRIRTQMREAFALLKEAGWELKNKVMTNVKTGEPLSFELLIYSPTTERIAIPLQKNLQLMGIEMKIRTVDTTQYTKRLRDRDFDMISHGFSANPYPSPNLLIVWNSNYMDSSYNSAGANHPVIDALTEQIAKSQQDTEKLRALGSALDRVLQWNFYIIPQWHLSMYRVAMWDKFSRPSVLPKYSLGLDTWWIDQEKAARLPEKRR | not soluble |
| NTDIRNIPVGVVDQSGSTAGRIITQSVKVTQVVDIKETYATAQEAEQAIQDGIVRAVLILPSDLTQRMMQGRELGQWIVDGSDTMISSAILSLQTMPLTDFDFEIRPAPSKTFEVALYYNPSRRSAVN | not soluble |
| MGSDKIHHHHHHMSDVSPARALGIDFGTSNSTVGWHRPGVESLIALEDGKITLPSVVFFNIEERRPVYGRLALHEYLEGYEGRLMRSLKSLLGSKLIKHDTSVLGSALPFKDLLGMFIGELKKRAEAAAGREFDQVVLGRPVFFVDEDPAADQEAEDTLAEVARKIGFKDVSFQYEPIAAAFDYESSISREELVLIVDIGGGTSDFTLIRLSPERHLVAERQSDILATGGVHIGGTDFDKQLSLQGVMPLFGYGSRMKSGALMPTSYHLNLATWHTINALYSQKSQLALGSMRYDIEDSFGIDRLFKLIEQRAGHWLAMEVEASKIELTEHDSRHIDLRRVEPELTAELTRTLFEEAIEGLLERVRGSVTELLAKAGVSEGQVDTVFFTGGSSGIPALRNSVSAMLPNARHVEGNIFGSIGSGLAIEARKRYGAA | not soluble |
| MASNQIEGAVVGIRVNDGIAAAPVVLFTHEMPAVPERDFQSEQGEIERVKRAIGVVVQHLQEQAKQPKGEIFSAHSMMLSDPELWASVESRIQTGMIAEQAWIESLQTLADEFRQAESQYMREREADVHDIARQVMVEMTGVTPNAIDIQEPSILLARDLMPSDVAGLDKSKVLGICLSEGGKTSHSAILARAMGIPAMVKAQGCLDAVRAGQVVTIDGFRGHLWFSPSDAIQQELEAQQIEWQSTRQSALASAQQA | not soluble |

Source: the DeepSol protein solubility set
